Square brackets hold non-standard residues; d marks the D form. Ends that are not written are not given here.
Target: insulin-degrading enzyme (recombinant human IDE) (human, UniProt P14735 1-1019)

B1: retro-inverso peptide hydroxamate Xaa-Arg-Tyr with Phe at P1' (peptide)
peptide: Phe-[dR]-[dY]
modifications: not fully specified (residue 1, N-terminus); also: retro-inverso (reversed backbone)
  Ki: 20 µM
